Source: publication PMC2756776 (Arteriosclerosis, thrombosis, and vascular biology, 2009)

Target: Factor XI (FXI), plasma-derived (human)
Experiment: ELISA

B1: Soluble recombinant ApoER2’ (a splice variant of ApoER2 lacking LDL-binding domains 4, 5 and 6) (receptor)
chain: not shown
With B1 the Kd was 61 nM.
